The results in this text go back to US20050164311A1, “Biological assay detection method” (priority 2001, published 2005).

Test [1] addresses T1, Protein phosphatase 2A1 (PP2A1) (Homo sapiens, UniProt P67775).
T1 construct: purchased Biomol Research Laboratories (Plymouth Meeting, Pa.)
Nature of the test: Protein phosphatase assay, TR-FRET detection with [Eu3+]GST-PDZ, inhibition experiments. Conditions: PP2A1 15 pM; substrate biotin-HRRAARYLEpSAV-OH; quenched after 60 min; condition Dilution. The format is biochemical. Here is the method: (§1) Assays were carried out in 96-well black, low binding, Microfluor2 plates (Dynex, Va.). Assay plates were read using a Victor^2V microplate analyzer (Perkin Elmer Wallac (Turku, Finland)), with 337 nm excitation. Fluorescence emission was measured at 665 nm for FRET signal and 615 nm for Eu^3+ chelate, and results are expressed as the ratio of fluorescence intensities, FI665nm/FI615 nm.
For the initial time courses, 20 μl of biotin-HRRAARYLEpSAV-OH (SEQ. ID No. 4) (100 nM in phosphatase buffer: 50 mM Tris, pH 7.4, 10% glycerol, 14 mM β-mercaptoethanol, 0.2 mg/ml BSA) was mixed with 20 μl of PP2A1 (2× in phosphatase buffer), and the reaction solution was incubated at 32° C. At different time points, 40 μl aliquots were quenched with […] of a 5×TR-FRET mixture of Cantharidic Acid (5 μM, [Eu^3+]GST-PDZ (1.6 nM), and [665]SA (15.6 nM) in PBSTB, for 60 min, at 25° C., and read.
For the inhibition experiments, 2 μl of inhibitor were added to 20 μl PP2A1 (30 pM in phosphatase buffer), and the reaction was initiated by addition of 20 μl of peptide substrate (100 nM in phosphatase buffer). The reaction was quenched after 60 min with the addition of 10 μl of 5×TR-FRET quenching/detection mixture, as described above. Background was measured from a reaction mixture with substrate, detection mixture and no enzyme.
Background: Time-resolved FRET reads energy transfer from a long-lived donor to a nearby acceptor.

For test [2], the target named is T2, Porcine carboxypeptidase B (CPB) (Sus scrofa, UniProt P09955).
T2 construct: purchased Sigma (St. Louis, Mo.)
T2 sequence (P09955 111-416): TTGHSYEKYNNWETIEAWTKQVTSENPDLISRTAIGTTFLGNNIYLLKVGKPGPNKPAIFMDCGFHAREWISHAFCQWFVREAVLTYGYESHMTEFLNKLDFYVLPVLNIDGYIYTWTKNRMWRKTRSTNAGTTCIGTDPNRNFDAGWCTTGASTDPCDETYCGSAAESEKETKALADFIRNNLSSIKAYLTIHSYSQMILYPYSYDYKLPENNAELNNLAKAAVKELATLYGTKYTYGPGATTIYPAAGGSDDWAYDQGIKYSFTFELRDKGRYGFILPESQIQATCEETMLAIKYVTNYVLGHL
Nature of the test: Carboxypeptidase B assay, TR-FRET detection with [Eu3+]GST-PDZ, inhibition experiments. The format is biochemical. As to conditions: CPB 100 pM; substrate biotin-HRRSARYLESSVR-OH; quenched after 30 min; condition Dilution. How it is done:
as §1
For the initial time courses, 20 μl of biotin-HRRSARYLESSVR-OH (SEQ. ID No. 7), (100 nM in 10 mM phosphate, 150 mM NaCl, 0.05% tween-20, 0.1% BSA (PBSTB)) was mixed with 20 μl of CPB (2× in PBSTB), and the reaction quenched with 10 μl of a 5×TR-FET mixture of PCI (1 μM, [Eu^3+]GST-PDZ (6.25 nM), and [X1665]SA (62.5 nM) in PBSTB, for 60 min, at 25° C., and read.
For the inhibition experiments, 2 Ill of inhibitor was added to 20 μl CPB (200 pM in PBSTB), and the reaction was initiated by addition of 20 μl peptide substrate (100 nM in PBSTB). The reaction was quenched after 30 min with the addition of 10 μl of 5×TR-FRET quenching/detection mixture, as described above. Background was measured from a reaction mixture with substrate, detection mixture and no enzyme.

The target of test [3] is Biotin-…-OH. Nature of the test: TR-FRET, 4 nM product peptide plus 36 nM masked substrate biotin-…-NH2 (Asp-N pair); data not shown.
The target in test [4] is Biotin-…-OH. The test can be described thus: TR-FRET, 4 nM product peptide plus 36 nM masked substrate biotin-…-OH (carboxypeptidase B pair); data not shown.
Test [5] deals with Biotin-…-OH. The test can be described thus: TR-FRET, 4 nM product peptide plus 36 nM masked substrate biotin-…pSAV-OH; optimal [Eu3+]GST-PDZ 0.3 nM and [XL665]SA 3.1 nM.
In test [6] the target is Porcine carboxypeptidase B (porcine) (UniProt P09955). The test can be described thus: cell-based or functional assay.

Bounds are passed on as bounds.

T1 sequence (P63151 whole entry): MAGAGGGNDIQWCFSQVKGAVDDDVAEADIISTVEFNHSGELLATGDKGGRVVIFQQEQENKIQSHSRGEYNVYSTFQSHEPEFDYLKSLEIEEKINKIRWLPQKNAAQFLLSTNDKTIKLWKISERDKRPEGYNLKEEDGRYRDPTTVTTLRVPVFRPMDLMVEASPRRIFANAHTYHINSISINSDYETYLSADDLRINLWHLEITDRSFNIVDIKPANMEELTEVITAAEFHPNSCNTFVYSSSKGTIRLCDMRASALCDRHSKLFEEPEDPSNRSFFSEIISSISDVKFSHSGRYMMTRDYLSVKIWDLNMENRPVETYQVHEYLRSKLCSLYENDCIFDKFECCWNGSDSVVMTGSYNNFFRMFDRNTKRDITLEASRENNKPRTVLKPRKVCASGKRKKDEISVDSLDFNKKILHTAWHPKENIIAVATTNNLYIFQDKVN
T1 sequence (P30153 whole entry, further chain): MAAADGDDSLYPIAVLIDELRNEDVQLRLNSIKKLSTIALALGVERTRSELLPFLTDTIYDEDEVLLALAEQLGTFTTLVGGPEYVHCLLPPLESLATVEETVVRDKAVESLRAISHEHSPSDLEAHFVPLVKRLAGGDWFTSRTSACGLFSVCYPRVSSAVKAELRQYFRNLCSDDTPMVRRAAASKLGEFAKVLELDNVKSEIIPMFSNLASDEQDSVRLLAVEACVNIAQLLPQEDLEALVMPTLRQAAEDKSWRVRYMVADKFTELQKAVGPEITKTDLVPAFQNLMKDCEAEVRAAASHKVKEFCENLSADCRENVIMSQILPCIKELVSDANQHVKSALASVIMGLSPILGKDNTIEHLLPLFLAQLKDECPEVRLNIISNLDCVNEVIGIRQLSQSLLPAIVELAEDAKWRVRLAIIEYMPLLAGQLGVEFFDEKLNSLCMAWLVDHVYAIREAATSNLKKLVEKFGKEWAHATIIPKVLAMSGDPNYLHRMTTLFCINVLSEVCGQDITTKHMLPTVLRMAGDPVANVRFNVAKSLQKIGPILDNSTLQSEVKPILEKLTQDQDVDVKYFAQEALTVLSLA
T1 sequence (P67775 whole entry): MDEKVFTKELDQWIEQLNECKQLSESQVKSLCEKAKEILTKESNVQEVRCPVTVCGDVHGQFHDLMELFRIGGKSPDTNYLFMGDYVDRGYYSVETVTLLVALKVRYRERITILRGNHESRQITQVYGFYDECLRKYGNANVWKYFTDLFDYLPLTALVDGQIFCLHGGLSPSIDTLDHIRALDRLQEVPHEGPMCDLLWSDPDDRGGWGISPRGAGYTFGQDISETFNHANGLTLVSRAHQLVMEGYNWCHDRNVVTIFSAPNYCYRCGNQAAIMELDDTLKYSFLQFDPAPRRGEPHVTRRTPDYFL

Consider `C=C1[C@@H](O)[C@@H]2O[C@]3(CC[C@H](/C=C/[C@@H](C)[C@@H]4CC(C)=C[C@@]5(O[C@H](C[C@@](C)(O)C(=O)O)CC[C@H]5O)O4)O3)CC[C@H]2O[C@@H]1[C@@H](O)C[C@H](C)[C@H]1O[C@@]2(CCCCO2)CC[C@H]1C` [Okadaic Acid, okadaic acid], for which the IC50 (usually the midpoint of a concentration-inhibition curve) in test [1] worked out at 0.015 nM. On the same count and under the same terms, next, `CC1(C(=O)O)C2CCC(O2)C1(C)C(=O)O` (stereo not shown) [Cantharidic Acid, cantharidic acid]: 56 nM. In test [2], “PCI: potato carboxypeptidase inhibitor from Sigma; the abbreviation list calls it protein carboxypeptidase inhibitor (QQHADPICNKPCKTHDDCSGAWFCQACWNSARTCGPYVG)” displayed an IC50 of 10 nM. That is a double-digit nanomolar value. With “[Eu3+]GST-PDZ (GST fused to PDZ module 3 of PSD-95, labeled with Eu3+ chelate ITC) (from UniProt P31016 300-402)”, the signal-to-background in the test with Biotin-…-OH [3], with Biotin-…-OH [4] and in the test with Biotin-…-OH [5] was greater than 10 fold throughout. Take “potato carboxypeptidase inhibitor (from UniProt P01075 1-39)”: the IC50 (inhibition of CPB hydrolysis of biotin-…-OH, TR-FRET read-out) in test [6] was 10 nM.
